Data reported in patent publication US20160011217A1 (NATIONAL CANCER CENTER, published 2016).

Target: T1, insoluble fibrin (fibrin plate, fibrin clot or tissue fibrin; species not stated for the experiment) (Homo sapiens (Human), UniProt P02671 36-630; P02675 45-491; P02679 27-433, Insoluble polymer of (alpha-beta-gamma)2 fibrin monomers, disulfide-bridged and possibly cross-linked by factor XIII. The letters give one copy of each chain only.)
T1 sequence (alpha): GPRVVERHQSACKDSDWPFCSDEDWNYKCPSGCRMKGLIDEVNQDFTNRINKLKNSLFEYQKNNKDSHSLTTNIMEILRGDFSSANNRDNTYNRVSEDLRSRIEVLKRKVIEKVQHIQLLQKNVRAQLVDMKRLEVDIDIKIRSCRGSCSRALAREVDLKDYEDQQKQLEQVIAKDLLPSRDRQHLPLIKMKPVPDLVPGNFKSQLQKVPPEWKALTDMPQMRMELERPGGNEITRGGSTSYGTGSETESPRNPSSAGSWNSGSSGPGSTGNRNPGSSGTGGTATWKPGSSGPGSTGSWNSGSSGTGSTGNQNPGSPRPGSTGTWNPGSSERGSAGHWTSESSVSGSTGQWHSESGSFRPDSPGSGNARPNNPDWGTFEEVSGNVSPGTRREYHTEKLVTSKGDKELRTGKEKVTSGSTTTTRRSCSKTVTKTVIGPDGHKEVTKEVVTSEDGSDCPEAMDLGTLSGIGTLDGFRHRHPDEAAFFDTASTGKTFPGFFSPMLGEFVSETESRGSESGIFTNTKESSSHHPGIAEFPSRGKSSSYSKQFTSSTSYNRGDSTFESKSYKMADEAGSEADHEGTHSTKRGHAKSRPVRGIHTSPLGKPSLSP
T1 sequence (beta): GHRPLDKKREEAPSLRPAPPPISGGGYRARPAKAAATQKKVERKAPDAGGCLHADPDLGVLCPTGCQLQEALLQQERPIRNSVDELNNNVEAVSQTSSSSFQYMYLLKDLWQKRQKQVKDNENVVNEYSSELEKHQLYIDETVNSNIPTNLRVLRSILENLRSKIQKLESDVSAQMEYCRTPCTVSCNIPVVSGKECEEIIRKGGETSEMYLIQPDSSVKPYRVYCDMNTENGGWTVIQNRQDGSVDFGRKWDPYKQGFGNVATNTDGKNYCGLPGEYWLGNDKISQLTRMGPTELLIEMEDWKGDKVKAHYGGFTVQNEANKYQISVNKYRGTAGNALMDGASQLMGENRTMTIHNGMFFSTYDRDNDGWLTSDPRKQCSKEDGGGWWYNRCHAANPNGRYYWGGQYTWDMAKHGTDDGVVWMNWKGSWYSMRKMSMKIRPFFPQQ
T1 sequence (gamma): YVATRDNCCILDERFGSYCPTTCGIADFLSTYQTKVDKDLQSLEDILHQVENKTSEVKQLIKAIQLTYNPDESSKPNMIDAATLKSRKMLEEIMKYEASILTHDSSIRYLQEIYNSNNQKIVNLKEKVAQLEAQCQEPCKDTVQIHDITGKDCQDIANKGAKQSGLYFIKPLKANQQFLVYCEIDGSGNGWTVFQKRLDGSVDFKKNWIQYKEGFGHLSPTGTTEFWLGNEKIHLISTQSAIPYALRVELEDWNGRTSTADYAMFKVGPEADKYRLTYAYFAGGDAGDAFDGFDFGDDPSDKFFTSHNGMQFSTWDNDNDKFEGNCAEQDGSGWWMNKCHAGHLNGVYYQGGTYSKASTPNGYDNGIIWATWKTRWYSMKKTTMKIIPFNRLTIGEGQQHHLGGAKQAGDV
Test: ELISA, fibrin plate against fibrinogen plate, antibody at 10 µg/mL, absorbance at 492 nm
Description: Each of the antibody solutions (100 μL each) at 10 μg/mL was added to the fibrin plate and the fibrinogen plate, and allowed to stand at room temperature for 1 hour. After washing with TBS-T, Bethyl Anti-Human IgG-HRP (×1000 dilution) or Bethyl Anti-Mouse IgG-HRP (×10000 dilution) was added as a secondary antibody. Then, after washing with TBS-T, colorimetry was conducted with OPD for 10 minutes, and measurement was conducted at an absorption wavelength of 492 nm.

ratio of the affinity for insoluble fibrin to the affinity for fibrinogen (absorbance at 492 nm): 13 times
B1: Fib-0355 antibody (monoclonal antibody produced by hybridoma Fib-0355) (antibody, V domains shown)
VH: GPELKKPGETVKISCKASGYTFTNYGMNWVKQAPGKGLKWMGWINTNTGEPTYAEEFKGRFAFSLETSASTAYLQINNLKNEDTATYFCARLLDYWGQGTTLTVSS
VL: PSSLAVSAGEKVTMSCKSSQSVLYSSNQKNYLAWYQQKPGQSPKLLIYWASTRESGVPDRFTGSGSGTDFTLTISSVQAEDLAVYYCQQYLSSYTFGG
notes: Mouse hybridoma monoclonal antibody, detected with anti-mouse IgG-HRP; also called anti-β chain antibody
